Laboratory results published in publication PMC3210020.
Read-outs that look alike come from different tables or passages of the source. Values belong to the molecule of their own block, whether it stands above or below them.

Legend:
integrin αIIbβ3 (human) [1] = molecular target: integrin αIIbβ3 (human) (UniProt P05106); assay: ELISA
integrin αIIbβ3 (human) [2] = molecular target: integrin αIIbβ3 (human) (UniProt P05106); assay: SPR
[3] = molecular target: integrin αIIbβ3 (Homo sapiens) (UniProt P08514); assay: SPR; details: cited from earlier work
[4] = molecular target: integrin αIIbβ3 (Homo sapiens) (UniProt P08514); assay: solid-phase binding; details: cited from earlier work
[5] = molecular target: integrin αIIbβ3 (Homo sapiens) (UniProt P08514); details: cited from earlier work
[6] = molecular target: integrin αIIbβ3 (Homo sapiens) (UniProt P08514); details: cited from earlier work; remark: listed apart in the source
integrin αIIbβ3 (human) [7] = molecular target: integrin αIIbβ3 (human) (UniProt P05106); assay: SPR; remark: listed apart in the source
integrin αIIbβ3 (human) [8] = molecular target: integrin αIIbβ3 (human) (UniProt P05106); assay: SPR; remark: listed apart in the source

- midpoint of the saturable binding profile (integrin αIIbβ3 (human) [1]): 2 nM
Molecule: biotinylated fibrinogen (from UniProt P02671-2 36-644; P02675 45-491; P02679-2 27-437) (natural protein)

- kon (integrin αIIbβ3 (human) [2]): 21900 M⁻¹ s⁻¹
Molecule: normal recombinant fibrinogen (from UniProt P02671-2 36-644; P02675 45-491; P02679-2 27-437) (natural protein)

- percent reduction of the fibrinogen (100 nM) binding signal at 3 µM peptide (integrin αIIbβ3 (human) [8]): < 10%
B1: synthetic γ-module peptide … (peptide)
peptide: HHLGGAKQAGDV

More lines, now with the values behind:

Molecule: eptifibatide (peptide)
- Ki (integrin αIIbβ3 (human) [2]): 0.4 nM

Molecule: fibrinogen (from UniProt P02671)
- Kd [3]: 3 nM
- Kd [4]: 60 nM
- Kd [5]: 165 nM
- Kd [6]: 50 nM

Molecule: human fibrinogen (plasma), (AαBβγ)2 (from UniProt P02671-2 36-644; P02675 45-491; P02679-2 27-437) (natural protein)
- Kd (integrin αIIbβ3 (human) [2]): 3.2 nM
- dH (integrin αIIbβ3 (human) [2]): -11.7 kcal/mol
- fold slower off rate at 15 °C than at 37 °C (integrin αIIbβ3 (human) [2]): 7 fold
- fold slower on rate at 15 °C than at 37 °C (integrin αIIbβ3 (human) [2]): 2 fold
- fold tighter binding at 15 °C than at 37 °C (integrin αIIbβ3 (human) [2]): 4 fold
- koff (integrin αIIbβ3 (human) [2]): 7.01e-05 s⁻¹
- kon (integrin αIIbβ3 (human) [2]): 21900 M⁻¹ s⁻¹
- Kd (integrin αIIbβ3 (human) [7]): 4.42 nM
- koff (integrin αIIbβ3 (human) [7]): 8.41e-05 s⁻¹
- kon (integrin αIIbβ3 (human) [7]): 19000 M⁻¹ s⁻¹
